Data taken from patent US7118879.
Read-outs that look alike come from different tables or passages of the source.

How the values were obtained:
[1] = biological target: human neutrophil elastase (immobilized on Reacti-Gel agarose beads, or free) (human) (UniProt P08246); assay: HNE beads, pH 7.0 eluate
[2] = biological target: human neutrophil elastase (immobilized on Reacti-Gel agarose beads, or free) (human) (UniProt P08246); assay: HNE beads, pH 2.5 eluate
[3] = biological target: human neutrophil elastase (immobilized on Reacti-Gel agarose beads, or free) (human) (UniProt P08246); assay: HNE beads, pH 4.5 eluate
[4] = biological target: human neutrophil elastase (immobilized on Reacti-Gel agarose beads, or free) (human) (UniProt P08246); assay: HNE beads, pH 7.0 eluate; remark: listed apart in the source
[5] = biological target: human neutrophil elastase (immobilized on Reacti-Gel agarose beads, or free) (human) (UniProt P08246); assay: HNE beads, pH 3.5 eluate
[6] = biological target: human neutrophil elastase (immobilized on Reacti-Gel agarose beads, or free) (human) (UniProt P08246); assay: HNE beads, pH 2.0 eluate
[7] = biological target: human neutrophil elastase (immobilized on Reacti-Gel agarose beads, or free) (human) (UniProt P08246); assay: HNE beads, pH 4.0 eluate
[8] = biological target: human neutrophil elastase (immobilized on Reacti-Gel agarose beads, or free) (human) (UniProt P08246); assay: HNE beads, pH 5.0 eluate
[9] = biological target: human neutrophil elastase (immobilized on Reacti-Gel agarose beads, or free) (human) (UniProt P08246); assay: HNE beads, pH 2.5 eluate; remark: listed apart in the source
[10] = biological target: human neutrophil elastase (immobilized on Reacti-Gel agarose beads, or free) (human) (UniProt P08246); assay: HNE beads, final TBS-TWEEN wash
[11] = biological target: human neutrophil elastase (immobilized on Reacti-Gel agarose beads, or free) (human) (UniProt P08246); assay: HNE beads, pH 3.5 eluate; remark: listed apart in the source
[12] = biological target: human neutrophil elastase (immobilized on Reacti-Gel agarose beads, or free) (human) (UniProt P08246); assay: HNE beads, all pH eluates
[13] = biological target: human neutrophil elastase (immobilized on Reacti-Gel agarose beads, or free) (human) (UniProt P08246); assay: pH elution of phage from HNE beads
[14] = biological target: human neutrophil elastase (immobilized on Reacti-Gel agarose beads, or free) (human) (UniProt P08246); assay: HNE beads, pH 3.5 eluate; remark: listed apart in the source
[15] = biological target: human neutrophil elastase (immobilized on Reacti-Gel agarose beads, or free) (human) (UniProt P08246); assay: HNE beads, pH 6.0 eluate
[16] = biological target: human neutrophil elastase (immobilized on Reacti-Gel agarose beads, or free) (human) (UniProt P08246); assay: HNE beads, pH 5.0 eluate; remark: listed apart in the source
[17] = biological target: human neutrophil elastase (immobilized on Reacti-Gel agarose beads, or free) (human) (UniProt P08246); assay: HNE beads, all pH eluates; remark: listed apart in the source
[18] = biological target: human neutrophil elastase (immobilized on Reacti-Gel agarose beads, or free) (human) (UniProt P08246); assay: HNE beads, pH 3.0 eluate
[19] = biological target: human neutrophil elastase (immobilized on Reacti-Gel agarose beads, or free) (human) (UniProt P08246); assay: HNE beads, pH 6.0 eluate; remark: listed apart in the source
[20] = biological target: human neutrophil elastase (immobilized on Reacti-Gel agarose beads, or free) (human) (UniProt P08246); assay: HNE beads, pH 5.5 eluate
[21] = biological target: human neutrophil elastase (immobilized on Reacti-Gel agarose beads, or free) (human) (UniProt P08246); assay: HNE beads, pH 7.0 eluate; remark: listed apart in the source
[22] = biological target: human neutrophil elastase (immobilized on Reacti-Gel agarose beads, or free) (human) (UniProt P08246); assay: HNE beads, pH 5.5 eluate; remark: listed apart in the source
[23] = biological target: human neutrophil elastase (immobilized on Reacti-Gel agarose beads, or free) (human) (UniProt P08246); assay: HNE beads, pH 3.0 eluate; remark: listed apart in the source
[24] = biological target: human neutrophil elastase (immobilized on Reacti-Gel agarose beads, or free) (human) (UniProt P08246); assay: pH elution of clonal phage from HNE beads (FIG. 9)
[25] = biological target: human neutrophil elastase (immobilized on Reacti-Gel agarose beads, or free) (human) (UniProt P08246); assay: HNE beads, pH 2.0 eluate; remark: listed apart in the source
[26] = biological target: human neutrophil elastase (immobilized on Reacti-Gel agarose beads, or free) (human) (UniProt P08246); assay: HNE beads, all pH eluates; remark: listed apart in the source
[27] = biological target: human neutrophil elastase (immobilized on Reacti-Gel agarose beads, or free) (human) (UniProt P08246); assay: HNE beads, pH 2.0 eluate; remark: listed apart in the source
[28] = biological target: human neutrophil elastase (immobilized on Reacti-Gel agarose beads, or free) (human) (UniProt P08246); assay: HNE beads, pH 4.0 eluate; remark: listed apart in the source
[29] = biological target: human neutrophil elastase (immobilized on Reacti-Gel agarose beads, or free) (human) (UniProt P08246); assay: HNE beads, pH 4.5 eluate; remark: listed apart in the source
[30] = biological target: human neutrophil elastase (immobilized on Reacti-Gel agarose beads, or free) (human) (UniProt P08246); assay: HNE beads, wash
[31] = biological target: anhydro-trypsin (agarose-immobilized) (UniProt P00760); assay: acid-eluted from anhydrotrypsin beads, experiment 2
[32] = biological target: trypsin (active, immobilized on beads, or in solution) (UniProt P00760); assay: trypsin beads
[33] = biological target: trypsin (active, immobilized on beads, or in solution) (UniProt P00760); assay: acid-eluted from trypsin beads
[34] = biological target: anhydro-trypsin (agarose-immobilized) (UniProt P00760); assay: acid-eluted from anhydrotrypsin beads, experiment 1
[35] = biological target: anhydro-trypsin (agarose-immobilized) (UniProt P00760); assay: anhydrotrypsin beads
[36] = biological target: trypsin (active, immobilized on beads, or in solution) (UniProt P00760); assay: eluted from trypsin beads
[37] = biological target: anhydro-trypsin (agarose-immobilized) (UniProt P00760); assay: anhydrotrypsin beads, experiment 2
[38] = biological target: protein A (agarose beads) (UniProt P38507); assay: titer after protein A beads alone
[39] = biological target: anhydro-trypsin (agarose-immobilized) (UniProt P00760); assay: eluted from anhydrotrypsin beads
[40] = biological target: anhydro-trypsin (agarose-immobilized) (UniProt P00760); assay: titer after anhydrotrypsin beads
[41] = biological target: anhydro-trypsin (agarose-immobilized) (UniProt P00760); assay: anhydrotrypsin beads, experiment 1
[42] = biological target: human neutrophil elastase (immobilized on Reacti-Gel agarose beads, or free) (human) (UniProt P08246); assay: HNE beads
[43] = biological target: human neutrophil elastase (immobilized on Reacti-Gel agarose beads, or free) (human) (UniProt P08246); assay: acid-eluted from HNE beads

human neutrophil elastase (immobilized on Reacti-Gel agarose beads, or free) (human), sequence (P08246 30-247 limits assumed): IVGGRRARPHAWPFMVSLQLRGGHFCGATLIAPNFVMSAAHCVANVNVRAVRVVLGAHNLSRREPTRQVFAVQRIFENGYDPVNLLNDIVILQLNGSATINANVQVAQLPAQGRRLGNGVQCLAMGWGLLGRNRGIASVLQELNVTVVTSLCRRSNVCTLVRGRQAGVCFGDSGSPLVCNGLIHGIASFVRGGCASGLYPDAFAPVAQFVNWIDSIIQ
trypsin (active, immobilized on beads, or in solution), sequence (P00760 24-246): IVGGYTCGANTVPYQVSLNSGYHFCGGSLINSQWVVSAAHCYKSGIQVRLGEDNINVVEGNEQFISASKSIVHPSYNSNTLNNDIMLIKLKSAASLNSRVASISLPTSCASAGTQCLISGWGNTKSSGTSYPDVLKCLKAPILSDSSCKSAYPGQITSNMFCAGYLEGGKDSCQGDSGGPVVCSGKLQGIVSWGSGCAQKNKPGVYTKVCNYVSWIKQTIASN

EpiNE7 phage (designed binder)
fraction of input [1]: 0.00018
total pfu in sample [1]: 620000 pfu
fraction of input [2]: 0.00016
total pfu in sample [2]: 280000 pfu
fraction of input [3]: 0.00061
total pfu in sample [3]: 1.1e+06 pfu
fraction of input [4]: 0.00029
total pfu in sample [4]: 520000 pfu
fraction of input [5]: 0.00029
total pfu in sample [5]: 950000 pfu
fraction of input [6]: 0.00016
total pfu in sample [6]: 290000 pfu
fraction of input [7]: 0.00048
total pfu in sample [7]: 1.6e+06 pfu
fraction of input [8]: 0.00047
total pfu in sample [8]: 840000 pfu
fraction of input [9]: 4.8e-05
total pfu in sample [9]: 160000 pfu
fraction of input [10]: 0.00012
total pfu in sample [10]: 380000 pfu
fraction of input [11]: 0.003
fraction of input, SUM of pH elution fractions [12]: 0.003
total pfu, SUM of pH elution fractions [12]: 6.4e+06 pfu
pH of elution peak [13]: 3.5 pH
fraction of input [14]: 0.00061
total pfu in sample [14]: 1.1e+06 pfu
fraction of input [15]: 0.00036
total pfu in sample [15]: 640000 pfu
fraction of input [16]: 0.00029
total pfu in sample [16]: 950000 pfu
fraction of input, SUM of pH elution fractions [17]: 0.0041
total pfu, SUM of pH elution fractions [17]: 7.6e+06 pfu
fraction of input [18]: 0.0002
total pfu in sample [18]: 660000 pfu
fraction of input [19]: 0.00041
total pfu in sample [19]: 1.4e+06 pfu
fraction of input [20]: 0.00043
total pfu in sample [20]: 780000 pfu
fraction of input [21]: 0.0003
fraction of input [22]: 0.00028
total pfu in sample [22]: 940000 pfu
fraction of input [23]: 0.00021
total pfu in sample [23]: 380000 pfu
pH of elution peak [24]: 3.5 pH
fraction of input [25]: 9.1e-05
total pfu in sample [25]: 300000 pfu
fraction of input, SUM of pH elution fractions [26]: 0.0043
fraction of input [27]: 0.001
fraction of input [28]: 0.00094
total pfu in sample [28]: 1.7e+06 pfu
fraction of input [29]: 0.00035
total pfu in sample [29]: 1.2e+06 pfu
fraction of input [30]: 6e-05

M13mp18 phage (wild type, non-display phage)
eluted phage, % of input [31]: 0.3%
relative binding (to M13MP18) [32]: 1 fold
eluted phage, % of input [33]: 0.0005%
eluted phage, % of input [34]: 0.2%
relative binding (to M13MP18) [35]: 1 fold
eluted phage, % of input [36]: 0.00023%
binding relative to M13mp18 [37]: 1 fold
% of input pfu [38]: 72%
eluted phage, % of input [39]: 0.1%
% of input pfu post incubation [40]: 121%
binding relative to M13MP18 [41]: 1 fold
relative binding (to M13MP18) [42]: 1 fold
eluted phage, % of input [43]: 0.0003%
